In the DeepSol protein solubility set:

Assay: soluble on expression in E. coli; label from the status in PepcDB or PDB records

Question: For “MAEMDERFQQILSWQQMDQNKAISQILQESAMQKAAFEALQVKKDLMHRQIRSQIKLIETELLQLTQLELKRKSLDTESLQEMISEQRWALSSLLQQLLKEKQQREEELREILTELEAKSETRQENYWLIQYQRLLNQKPLSLKLQEEGMERQLVALLEELSAEHYLPIFAHHRLSLDLLSQMSPGDLAKVGVSEAGLQHEILRRVQELLDAARIQPELKPPMGEVVTPTAPQEPPESVRPSAPPAELEVQASECVVCLEREAQMIFLNCGHVCCCQQCCQPLRTCPLCRQDIAQRLRIYHSS”, which “soluble on expression in E. coli” value is on record?
Answer: soluble

Question: Which “soluble on expression in E. coli” value does the source give for “MAENKTINKEQNRTENNEIVIMNFSGIYKEQQFYRNHAEMQEDISWLEVQDLPGSNCYCDEEAKNRILDDIKNYTGNGIHFIDSGNYHYVSRLWLSKMEHPFRLLVFDNHTDMQLPAFGGLLSCGGWIAASLEEVPMLQEVILVGPDEEAYMQVEPEFQQKVQFLSREKLLAMTGEEKNTFFRNLRADLPMYISVDKDVLCTADASTTWSQGDMSLEKLQKFLEIVLQQQQILGMDICGECDPDACERNLLNDRANQKLLELWKKYFPQIRERRQDI” here?
Answer: not soluble

Question: For “MAEPLQPDPGAAEDAAAQAVETPGWKAPEDAGPQPGSYEIRHYGPAKWVSTSVESMDWDSAIQTGFTKLNSYIQGKNEKEMKIKMTAPVTSYVEPGSGPFSESTITISLYIPSEQQFDPPRPLESDVFIEDRAEMTVFVRSFDGFSSAQKNQEQLLTLASILREDGKVFDEKVYYTAGYNSPVKLLNRNNEVWLIQKNEPTKENE”, which “soluble on expression in E. coli” value is on record?
Answer: soluble

Question: With “MAEPQPASSGLTDETAFSCCSDPDPSTKDFLLQQTMLRIKDPKKSLDFYTRVLGLTLLQKLDFPAMKFSLYFLAYEDKNDIPKDKSEKTAWTFSRKATLELTHNWGTEDDETQSYHNGNSDPRGFGHIGIAVPDVYSACKRFEELGVKFVKKPDDGKMKGLAFIQDPDGYWIEILNPNKIATII” as the sequence, how does the “soluble on expression in E. coli” value read?
Answer: soluble

Question: For “MAEQRWTGQLDLTVFNNGQSSKARNIFFEKALKVLRPIYLEQSPVPTFYIVNVGGGYLDGDRYRVNVNLEDNAQVTLTSQGATKIYKTPNDHVEQYQTFNLSNQSYMEFVADPIIAYENAKFFQHNTFNLKEDSAMFYTDILTPGYSSNGQDFTYNYMHLINEIYIDNQLVVFDNMMLSPDKSRLDGIGYMENYTHLGSAYFIHPDVNQSFIDDIYAAVADFQKQYDCRIGISQLPTHGLAVRILTKRTQIIEEILTRVQSYINQTIYHRQINFLRKYLEHHHHHH”, which “soluble on expression in E. coli” value is on record?
Answer: not soluble

Question: Which “soluble on expression in E. coli” value does the source give for “MAEQSDKDVKYYTLEEIQKHKDSKSTWVILHHKVYDLTKFLEEHPGGEEVLREQAGGDATENFEDVGHSTDARELSKTYIIGELHPDDRSKIAKPSETL” here?
Answer: soluble

Question: With “MAEQYSEINTDTLERVTEIFKALGDYNRIRIMELLSVSEASVGHISHQLNLSQSNVSHQLKLLKSVHLVKAKRQGQSMIYSLDDIHVATMLKQAIHHANHPKESGL” as the sequence, how does the “soluble on expression in E. coli” value read?
Answer: soluble

Question: Which “soluble on expression in E. coli” value does the source give for “MAERKYFGTDGVRGKVGQFPITPDFALKLGWAAGKILATQGTKQVLIGKDTRISGYMLESALEAGLAAAGLSAAFVGPMPTPAVAYLTRTFRAEAGIVISASHNPYYDNGIKFFSANGEKLPDEVEEAIEALLDQPMDYVESDQLGKAIRINDAAGRYIEFCKGTFPADASLKGYKIVVDCAHGATYHIAPNVMRELGAEVIEIGTHPNGLNINDKCGATDISALQQAVLTSKADLGVAYDGDGDRIIMVDHLGNKVDGDQILFIIAREALRSGKLKGGVVGTLMSNMGLEIALKHLAIPFTRANVGDRYVLEQLKEKNWKLGGENSGHIIVLDKNTTGDGIIASLEVLAAMEAHKMSLNDLTHAVPLFPQVLLNVRFDGGNNPLENAAVKALAKDIETRLVGKGRILLRKSGTEPLIRVMVECEDAVLAQQYAEEIVSAIQNH” here?
Answer: not soluble

Question: With “MAESLITKKAIAGGLMELCQHKRFEKISIADITNICGLNRQTFYYHFTDKYDLLTWTYENDFFHCLADGITLENWDKHVLKMLESIKENADFYKNTVSADASILSFCFSKLTNSLFMDLFEKIDTNGAVNEADRVFYAEFFSYGCSGVLIKWITRGFKEAPETIANQLFRLAKDTEFLANSMYRENLEHHHHHH” as the sequence, how does the “soluble on expression in E. coli” value read?
Answer: soluble

Question: Which “soluble on expression in E. coli” value does the source give for “MAFANFRRILRLSTFEKRKSREYEHVRRDLDPNEVWEIVGELGDGAFGKVYKAKNKETGALAAAKVIETKSEEELEDYIVEIEILATCDHPYIVKLLGAYYHDGKLWIMIEFCPGGAVDAIMLELDRGLTEPQIQVVCRQMLEALNFLHSKRIIHRDLKAGNVLMTLEGDIRLADFGVSAKNLKTLQKRDSFIGTPYWMAPEVVMCETMKDTPYDYKADIWSLGITLIEMAQIEPPHHELNPMRVLLKIAKSDPPTLLTPSKWSVEFRDFLKIALDKNPETRPSAAQLLEHPFVSSITSNKALRELVAEAKAEVMEEIEDGRDEGEEEDAVDAASTLENHTQNSSEVSPPSLNADKPLEESPSTPLAPSQSQDSVNEPCSQPSGDRSLQTTSPPVVAPGNENGLAVPVPLRKSRPVSMDARIQVAQEKQVAEQGGDLSPAANRSQKASQSRPNSSALETLGGEKLANGSLEPPAQAAPGPSKRDSDCSSLCTSESMDYGTNLSTDLSLNKEMGSLSIKDPKLYKKTLKRTRKFVVDGVEVSITTSKIISEDEKKDEEMRFLRRQELRELRLLQKEEHRNQTQLSNKHELQLEQMHKRFEQEINAKKKFFDTELENLERQQKQQVEKMEQDHAVRRREEARRIRLEQDRDYTRFQEQLKLMKKEVKNEVEKLPRQQRKESMKQKMEEHTQKKQLLDRDFVAKQKEDLELAMKRLTTDNRREICDKERECLMKKQELLRDREAALWEMEEHQLQERHQLVKQQLKDQYFLQRHELLRKHEKEREQMQRYNQRMIEQLKVRQQQEKARLPKIQRSEGKTRMAMYKKSLHINGGGSAAEQREKIKQFSQQEEKRQKSERLQQQQKHENQMRDMLAQCESNMSELQQLQNEKCHLLVEHETQKLKALDESHNQNLKEWRDKLRPRKKALEEDLNQKKREQEMFFKLSEEAECPNPSTPSKAAKFFPYSSADAS” here?
Answer: soluble

Question: For “MAFFRLAALLWLGMLMSPVQAQSLSLQVLDAVVKDAVLADAEVQLGQASGRTDAQGRVTLEAADSPGSELLIRKLGYADLRAKCPCQGLSYAMSPVLKDPQSLRVVLSWSAPGEDLDAHLSYPHRLLYYATGTGPGARMNVDSTDSRGPETLTIEQPVPGDAYVYAVHDFTNGNNPESLRLGRSQAQVFVYKGPTLMRSYRVPQNRQGNLWVVFRLTANGQLQDIDRVLQGNEEVESRMSDLDPLLLANGKPIDEVLARDEGPVDAKSLNQKGEASYRKGDVGSAGIYYREAIELDPGFAQAYSNLALSNRKNSRPDEAVAADRQAIALASGPSAPTIRASAYYDMGRIYEDAGQLVTALEHYRKAREQKANPVYDKAIERLQNRLEHHHHHH”, which “soluble on expression in E. coli” value is on record?
Answer: not soluble

Question: With “MAFKGYPVIDKDGNIYAGNQDGQLYAYTSTGSLKWTFPLNGFSSSSPAIDHNGNIYIGSGSGELFSISKNGDMNWSFYTDGPVRTAPLIDAKGTVYFGSDDMKVYAADANGNELWSYQTDSNVVSSPQLAEDGTLEHHHHHH” as the sequence, how does the “soluble on expression in E. coli” value read?
Answer: not soluble

Question: For “MAFNIESLLEKKSNPVEEGNDFEEENDSEKNGEEDEEEEEKNVIDGWTNMATSQLAMFAIANDLRTPTLVELQMLLGVSARKHDYKRSRKSVCERKPRQAYSARQLDRLETEFQTDKYLSVNKRIQLSQTLNLTETQIKTWFQNRRTKWKKQLTSSIRQMVKDAPTSTSVGVPFQSLLTPPTPPTTLACHVNSLFACEQ”, which “soluble on expression in E. coli” value is on record?
Answer: not soluble

Question: Which “soluble on expression in E. coli” value does the source give for “MAGDPMGGAGLDNAQNVRNQTQNQTKPIHVSDRNEAFNRHNENEQFGYVRYQKEQFDGEQQKTPVMNREETAHMISSLTVQLPHIQDAATLVTDREALVVYKTDSKNRELTADQVKKTAASVIPRYYHVYISDNPNHMQSVENYSNLGSGSRDIREIMSGTIQEMKTSPQGSPVSENENANGETRQDMKIDRNDKNARLEHHHHHH” here?
Answer: soluble

Question: Which “soluble on expression in E. coli” value does the source give for “MAGDPMGNNNSTKESTHDNHSDSSTHEEMDHSGSADVPEGLQESKNPKYKVGSQVIINTSHMKGMKGAEATVTGAYDTTAYVVSYTPTNGGQRVDHHKWVIQEEIKDAGDKTLQPGDQVILEASHMKGMKGATAEIDSAEKTTVYMVDYTSTTSGEKVKNHKWVTEDELSAKLEHHHHHH” here?
Answer: soluble

Question: Which “soluble on expression in E. coli” value does the source give for “MAGDPMKKLVTATTLTAGIGTALVGQAHHADAAENYTNYNNYNYNTTQTTTTTTTTTTTSSISHSGNLYTAGQCTWYVYDKVGGEIGSTWGNANNWAAAAQGAGFTVNHTPSKGAILQSSEGPFGHVAYVESVNSDGSVTISEMNYSGGPFSVSSRTISASEAGNYNYIHILEHHHHHH” here?
Answer: not soluble

Question: Which “soluble on expression in E. coli” value does the source give for “MAGDPMRTYENKEELKAEIEKTFEKYILEFDNIPENLKDKRADEVDRTPAENLAYQVGWTNLVLKWEEDERKGLQVKTPSDKFKWNQLGELYQWFTDTYAHLSLQELKAKLNENINSISAMIDSLSEEELFEPHMRKWADEATKTATWEVYKFIHVNTVAPFGTFRTKIRKWKKIVLLEHHHHHH” here?
Answer: soluble

Question: For “MAGDPMVLKRIRDMFVASVHEGLDKMENPKVMLNQYVRDMESDIAKAKQTIVKQHTIAYQFKKKYEEAAEVAGKRKNQAQLAFDAGEEELAKKALTEMKYLEGKAAEHKASYEQANSQLADLKEQLAALETKLQDVKDKKQALIARANAAKAKEHMNTTFDKIDSESAYREFLRIENRIEEMEIRANYSKSAEAGTELTRKEFADDVEAEIEKMRTLSLQKSDQTKAANELEHHHHHH”, which “soluble on expression in E. coli” value is on record?
Answer: soluble

Question: Which “soluble on expression in E. coli” value does the source give for “MAGLTRALVARHALGRAEAYDAALLDVAQDHLLYLLSQTVQFGDNRLVFKGGTSLRKCRLGNVGRFSTDLDFSAPDDEVVLEVCELIDGARVGGFEFGVQSTRGDGRHWQLRVRHTELGEPRIVASVEFARRPLALPSELLAFIQLPIHKAYGFGLPTLPVVAEAEACAEKLARYRRVALARDLYDLNHFASRTIDEPLVRRLWVLKVWGDVVDDRRGTRPLRVEDVLAARSEHDFQPDSIGVLTRPVAMAAWEARVRKRFAFLTDLDADEQRWAACDERHRREVENALAVLRS” here?
Answer: soluble

Question: With “MAGSGVAKQIFALDFEIFGRVQGVFFRKHTSHEAKRLGVRGWCMNTRDGTVKGQLEAPMMNLMEMKHWLENNRIPNAKVSKAEFSQIQEIEDYTFTSFDIKH” as the sequence, how does the “soluble on expression in E. coli” value read?
Answer: soluble

Question: For “MAGWRTVVVNTHSKLSYKNNHLIFKDAYKTELIHLSEIDILLLETTDIVLSTMLVKRLVDENVLVIFCDDKRLPTAMLMPFYGRHDSSLQLGKQMSWSETVKSQVWTTIIAQKILNQSCYLGACSYFEKSQSIMDLYHGLENFDPSNREGHAARIYFNTLFGNDFSRDLEHPINAGLDYGYTLLLSMFAREVVVSGCMTQFGLKHANQFNQFNFASDIMEPFRPLVDKIVYENRNQPFPKIKRELFTLFSDTFSYNGKEMYLTNIISDYTKKVVKALNNEGKGVPEFRI”, which “soluble on expression in E. coli” value is on record?
Answer: not soluble

Question: Which “soluble on expression in E. coli” value does the source give for “MAHHHHHHMAALQHVNSATEITPLLACGGDYVKNGTQTLSIPSVYATLDALESLWQAQREKQHLSVRGRAQGLRHYHAVYEASARCVPLSLTRWEQWLAGLSEQGARSTVGACPDELSSSSSPHVQRVQKELVDSYWHLYRRLCWGSSGAAKAGLAAVLEHTDSAASGLPSVMATGAASLLAKQEAALAKPLQAFARLSADRHTCSPITR” here?
Answer: not soluble

Question: For “MAHHHHHHMAASANGSTKGSETDLPIGKDGTTLHLKCKSDELADRIIFVGDPGRVDVISGYFDKDSIRASRDHREIRFATGTYKGTPVTVISTGMGVDNIEIVLNEIHALKEYDMERGQWRHRKGDADAPSAGPFFDPSTMKIIRLGTCGSPAESVPPLALAVTRHAIGMDNTSLYYSAGTRETSKDQQEIRRIVREQTGLRAIDIYTSMAHPNITKSICAACDAHNAATGSEADKQQYVIGTTATASGFYGCQGRRVGRFMKHLTVPNMVEELGSLKFNLSNGVEVVTNIEMETSAICYLSDMLGYQAGAACVVVSKRVGEKKMFLGDQLDAAMKRCIKIILEALVSA”, which “soluble on expression in E. coli” value is on record?
Answer: soluble
